# Source: US8530235B2, “Medium that supports culture of an oocyte and modulation of granulosa cell apoptosis” (Adelaide Research & Innovation Pty Ltd., priority 2005, dated 2013)
# B1: GDF-9: Recombinant mouse GDF-9 produced in-house in transfected 293H cells, partially purified by HIC (protein, UniProt Q07105 307-441, looked up)
# Growth/differentiation factor …: GQKAIRSEAKGPLLTASFNLSEYFKQFLFPQNECELHDFRLSFSQLKWDNWIVAPHRYNPRYCKGDCPRAVRHRYGSPVHTMVQNIIYEKLDPSVPRPSCVPGKYSPLSVLTIEPDGSIAYKEYEDMIATRCTCR
# B2: BMP-15: Recombinant ovine BMP-15 produced in-house in transfected 293H cells, partially purified by hydrophobic interaction chromatography; dosed as % v/v (protein, UniProt Q9MZE2 269-393, looked up)
# Bone morphogenetic protein 15: QAGSIASEVPGPSREHDGPESNQCSLHPFQVSFQQLGWDHWIIAPHLYTPNYCKGVCPRVLHYGLNSPNHAIIQNLVSELVDQNVPQPSCVPYKYVPISILLIEANGSILYKEYEGMIAQSCTCR
# Tested on: cumulus cells
# Test: Cumulus cell apoptosis in oocytectomized complexes (OOX) and COC, TUNEL with confocal microscopy
# Format: cell-based, Bovine
# Conditions: for effect on incidence of cumulus cell apoptosis: OOX cultured with increasing doses (GDF-9 0-175 ng/ml, BMP-6 0-100 ng/ml, BMP-15 0-20% v/v, 5-50 DO), presence or absence of FSH
# Description: Bovine ovaries were collected from local abattoir and transported to the laboratory in warm saline (30-35° C.). Cumulus-oocyte complexes (COC) were aspirated from antral follicles (2- to 8-mm diameter) using an 18-gauge needle and a 10-ml syringe containing ˜2 ml aspiration media (Hepes-buffered Tissue Cultured Medium-199: TCM-199, ICN Biochemicals, Irvine, Calif., USA) supplemented with 50 μg/ml kanamycin (Sigma-Aldrish, St. louis, Mo.), 4 mg/ml fatty acid-free bovine serum albumin (FAF-BSA) (ICPbio ltd, Auckland, NZ). Intact COC with compact cumulus vestment greater than five cell layers and evenly pigmented cytoplasm were selected under a dissecting microscope and washed twice in Hepes-buffered TCM-199 and once in corresponding culturing media.
# The cytoplasm of each oocyte was microsurgically removed from the COC (oocytectomy) using a micromanipulator as described in Buccione et al (Buccione et al. (1990) Dev Biol 138, 16-25.). The resulting oocytectomized complex (OOX) consists of a hollow zona pellucida surrounded by several layers of intact CC.
# Denuded oocytes (DO) were generated by removing CC from COC by vortexing for approximately 4 minutes in 2 ml H-TCM-199/BSA. Any remaining CC were removed by repeated passage of the oocytes through a fine-bore fire-polished glass pipette in H-TCM-199/BSA.
# CC apoptoic DNA was detected using TUNEl (Roche Diagnostic, Penzberg, Germany) according to the manufacturer's instructions. Briefly, following culture COC and OOX complexes were washed twice in PBS (pH 7.4) containing 1% BSA, fixed in 4% paraformaldehyde in PBS (pH 7.4) overnight at 4° C. and washed twice with PBS/BSA before placing on Cell-Tak-coated coverslips (Beckton Dickinson Biosciences, Franklin lakes, N.J.). Complexes were then permeabilized in 0.11/u Triton X-100 in 0.1% sodium citrate for 1 hour at room temperature and washed 3 times in PBS/BSA. The complexes were then incubated in fluorescein-conjugated dUTP and terminal deoxynucleotide transferase (TUNEl reagents, Roche) for 1 hour at 37° C. in the dark. Positive controls were incubated in DNAse 1 (0.005 U/µl), which cleaves all DNA, for 20 minutes at room temperature and washed twice in PBS/BSA before TUNEl. Negative controls were incubated in fluorescein-dUTP in the absence of TdT. After TUNEl, complexes were washed twice in PBS/BSA and counterstained with propidium iodide 0.5 μg/ml (PI) plus RNase A (0.1 mg/ml) for 1 hour at room temperature in the dark to label all nuclei. Complexes were then washed twice in PBS/BSA and mounted with slight coverslip compression in VectaShield anti-bleaching solution (Vector labs, Burlingame, Calif.), and stored in the dark at 4° C. for confocal analysis.
# Apoptosis in COC and OOX was visualised and quantified using confocal microscopy. Dual fluorescence emission from CC was detected using a Nikon C1 Confocal Scanning Head and a Nikon TE2000E microscope (Nikon, Tokyo, Japan). Simultaneous emission capture of the apoptotic signal (fluorescein, lacer excitation 488 nm, emission 510-530 nm) and the nuclear signal (propidium iodide, excitation lacer 532, emission 590-640 nm) was performed.
# In order to generate an accurate representation of the overall apoptotic incidence for all complexes, the depth of each complex was measured through a Z series to divide the construct into three percentiles (optical Z plane sections) at 25%, 50% and 75%. These optical section images were acquired and saved as independent colour channels (green, apoptotic cumulus fluorescence and red, nuclear cumulus fluorescence). The captured images were then processed in Scanalytics IPlab software Version 3.6. (Scanalytics, Fairfax, Va.). Quantification of CC number (for each colour channel) was independently measured using a macro script utilizing an auto segmentation filter for each optical section percentile (3 optical “z”-plane sections for each complex).
molecule,measurement,setting,value
B1,effect on incidence of cumulus cell apoptosis,,no significant effect
B2,effect on incidence of cumulus cell apoptosis,,significantly reduced
same,effect on cumulus cell apoptosis,OOX treated with 100 ng/ml BMP-7 and/or 10% BMP-15,significantly reduced
same,"effect on CC apoptosis, test for additive effect","OOX treated with DO, 10 ng/ml BMP-6 and/or 10% v/v BMP-15",significantly (P<0.001) decreased
